The values that follow come from the supplement of paper PMC7877785.

± gives the uncertainty stated by the source.

This data set in a line: self-splicing fitness, log relative to wild type (ln ratio); higher = more splicing; Tetrahymena group I intron in knt gene, E. coli kanamycin selection, DiMSum; sequences stand for … in CUCUCU…GGAGGGAAAAGUUAUCAGGCAUGCACCUGGUAGCUAGUCUUUAAACCAAUAGAUUGCAUCGGUUUAAAAGGCAAGACCGUCAAAUUGCGGGAAAGGGGUCAACAGCCGUUCAGUACCAAGUCUCAGGGGAAACUUUGAGAUGGCCUUGCAAAGGGUAUGGUAAUAAGCUGACGGACAUGGUCCUAACCACGCAGCCAAGUCCUAAGUCAACAGAUCUUCUGUUGAUAUGGAUGCAGUUCACAGACUAAAUGUCGGUCGGGGAAGAUGUAUUCUUCUCAUAAGAUAUAGUCGGACCUCUCCUUAAUGGGAGCUAGCGGAUGAAGUGAUGCAACACUGGAGCCGCUGGGAACUAAUUUGUAUGCGAAAGUAUAUUGAUUAGUUUUGGAGUACUCGUGGUCG
An outline of the steps: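 Pooled colonies went to amplicon sequencing on an Illumina HiSeq 2500 after six replicate transformations. The plates were LB agar with 100 μg/mL carbenicillin, 50 μM IPTG and 0.2% rhamnose, with or without 25 μg/mL kanamycin, incubated overnight at 37°C or 30°C. The E. coli BL21(DE3) library had all eight P1ex-region intron nucleotides randomised, the intron placed in the knt kanamycin-resistance gene on pET-22b(+). DiMSum fitness is the error-weighted combination of replicate fold changes, kanamycin against none, normalised to wild type.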

As for GGUAAGCAAUAUUACGUUCG, the “self-splicing fitness (ln)” value by setting is: (30 °C) -0.34 ± 0.15; (37 °C) -0.4 ± 0.18.
The matching figures for GGUAAGCAAUAUUACGUUGA: -1.76 ± 0.21 and -1.03 ± 0.15.
GGUCAGCAAUAUUACGAAGG: the “self-splicing fitness (ln)” value is -0.594 ± 0.14 (30 °C) and -0.251 ± 0.22 (37 °C).
Turning to GGUCAGCAAUAUUACGACAC, the “self-splicing fitness (ln)” value was 0.184 ± 0.32 (30 °C) and -0.0653 ± 0.25 (37 °C).
The matching figures for GGUCAGCAAUAUUACGACAU: 0.0683 ± 0.013 and 0.148 ± 0.033.
As to GGUCAGCAAUAUUACGACCA, the “self-splicing fitness (ln)” value by setting is: (30 °C) -0.982 ± 0.16; (37 °C) -0.657 ± 0.23.
On the same counts, the results for GGUCAGCAAUAUUACGAGGC are -3.61 ± 0.3 and -2.84 ± 0.43.
For GGUCAGCAAUAUUACGAUGC, the “self-splicing fitness (ln)” value reads like this: (30 °C) -0.354 ± 0.091; (37 °C) 0.43 ± 0.11.
On the same counts, the results for GGUCAGCAAUAUUACGCCCU are -0.704 ± 0.14 and 0.198 ± 0.17.
On to GGUCAGCAAUAUUACGCGAU, for which the “self-splicing fitness (ln)” value (30 °C) was -2.41 ± 0.18.
The same measure, in the same setting: next, GGUCAGCAAUAUUACGCGCC: 0.245 ± 0.39.
With GGUCAGCAAUAUUACGCUGC, the “self-splicing fitness (ln)” value reads like this: (30 °C) -1.88 ± 0.25; (37 °C) -3.17 ± 0.47.
Take GGUCAGCAAUAUUACGGAGC: the “self-splicing fitness (ln)” value (30 °C) is -1.4 ± 0.18 and the “self-splicing fitness (ln)” value (37 °C) is -0.82 ± 0.14.
On the same counts, the results for GGUCAGCAAUAUUACGGCGG are -0.828 ± 0.049 and -0.274 ± 0.065.
The matching figures for GGUCAGCAAUAUUACGGCGU: 0.348 ± 0.11 and 0.0889 ± 0.12.
The matching figures for GGUCAGCAAUAUUACGGCUU: -1.18 ± 0.087 and -0.0465 ± 0.12.
For GGUCAGCAAUAUUACGGGGG, under “37 °C”, the “self-splicing fitness (ln)” value is -2.15 ± 0.34.
As for GGUCAGCAAUAUUACGGUAG, the “self-splicing fitness (ln)” value runs as follows: (30 °C) -2.15 ± 0.18; (37 °C) -0.967 ± 0.19.
On the same counts, the results for GGUCAGCAAUAUUACGGUUC are 0.308 ± 0.096 and -0.214 ± 0.1.
On the same counts, the results for GGUCAGCAAUAUUACGUAGU are -0.367 ± 0.064 and 0.693 ± 0.075.
The matching figures for GGUCAGCAAUAUUACGUCAG: -3.99 ± 0.4 and -3.23 ± 0.47.
Regarding GGUCAGCAAUAUUACGUCCG, the “self-splicing fitness (ln)” value reads like this: (30 °C) -0.0947 ± 0.13; (37 °C) -0.124 ± 0.19.
Take GGUCAGCAAUAUUACGUCGA: the “self-splicing fitness (ln)” value runs as follows: (30 °C) -0.64 ± 0.098; (37 °C) -0.54 ± 0.1.
The matching figures for GGUCAGCAAUAUUACGUCUA: -0.0881 ± 0.073 and 0.0699 ± 0.078.
The matching figures for GGUCAGCAAUAUUACGUGUG: -1.39 ± 0.069 and -0.514 ± 0.092.
GGUCAGCAAUAUUACGUUCC: the “self-splicing fitness (ln)” value by setting is: (30 °C) -0.328 ± 0.24; (37 °C) -0.643 ± 0.28.
The matching figures for GGUCAGCAAUAUUACGUUGA: -3.12 ± 0.27 and -1.76 ± 0.25.
The matching figures for GGUGAGCAAUAUUACGAAUG: -3.14 ± 0.29 and -2.36 ± 0.5.
With GGUGAGCAAUAUUACGACGC, the “self-splicing fitness (ln)” value is -0.546 ± 0.19 (30 °C) and -0.0795 ± 0.28 (37 °C).
On to GGUGAGCAAUAUUACGAUCC, for which the “self-splicing fitness (ln)” value (37 °C) was -0.766 ± 0.35.
On the same count and under the same terms, next, GGUGAGCAAUAUUACGAUUA: -0.938 ± 0.45.
Consider GGUGAGCAAUAUUACGCGAA, for which the “self-splicing fitness (ln)” value is -2.96 ± 0.14 (30 °C) and -1.65 ± 0.13 (37 °C).
The matching figures for GGUGAGCAAUAUUACGCGAC: -3.49 ± 0.29 and -3.12 ± 0.25.
Take GGUGAGCAAUAUUACGCGGU: the “self-splicing fitness (ln)” value (37 °C) is -1.5 ± 0.42.
Turning to GGUGAGCAAUAUUACGCUAC, the “self-splicing fitness (ln)” value (30 °C) is -2.34 ± 0.2.
As for GGUGAGCAAUAUUACGCUGC, the “self-splicing fitness (ln)” value (30 °C) is -3.91 ± 0.28 and the “self-splicing fitness (ln)” value (37 °C) is -2.65 ± 0.32.
With GGUGAGCAAUAUUACGGACG, the “self-splicing fitness (ln)” value by setting is: (30 °C) -0.0602 ± 0.16; (37 °C) 0.806 ± 0.32.
On the same counts, the results for GGUGAGCAAUAUUACGGCCG are -1.15 ± 0.38 and -2.11 ± 0.24.
The matching figures for GGUGAGCAAUAUUACGUGAA: -1.76 ± 0.36 and -1.27 ± 0.32.
On the same counts, the results for GGUGAGCAAUAUUACGUGCG are -0.62 ± 0.12 and -0.505 ± 0.18.
Turning to GGUGAGCAAUAUUACGUGUG, the “self-splicing fitness (ln)” value by setting is: (30 °C) -3.28 ± 0.2; (37 °C) -2.47 ± 0.2.
On the same counts, the results for GGUGAGCAAUAUUACGUUAG are -3.01 ± 0.2 and -2.83 ± 0.3.
The matching figures for GGUGAGCAAUAUUACGUUAU: -3.23 ± 0.2 and -1.84 ± 0.19.
Turning to GGUGAGCAAUAUUACGUUUC, the “self-splicing fitness (ln)” value (30 °C) is -3.36 ± 0.29 and the “self-splicing fitness (ln)” value (37 °C) is -1.68 ± 0.25.
The matching figures for GGUUAGCAAUAUUACGAAUG: -0.2 ± 0.3 and -0.491 ± 0.33.
As for GGUUAGCAAUAUUACGAGAG, the “self-splicing fitness (ln)” value was -2.64 ± 0.44 (30 °C) and -2.45 ± 0.39 (37 °C).
For GGUUAGCAAUAUUACGAGCA, the “self-splicing fitness (ln)” value is, setting by setting: (30 °C) -0.943 ± 0.1; (37 °C) -0.264 ± 0.1.
On the same counts, the results for GGUUAGCAAUAUUACGAUGA are -0.915 ± 0.12 and -0.286 ± 0.13.
For GGUUAGCAAUAUUACGAUUG, the “self-splicing fitness (ln)” value reads like this: (30 °C) -1.56 ± 0.19; (37 °C) -1.1 ± 0.21.
The matching figures for GGUUAGCAAUAUUACGCCCA: -0.993 ± 0.27 and -1.13 ± 0.3.
The matching figures for GGUUAGCAAUAUUACGCUAU: -4.15 ± 0.46 and -2.72 ± 0.34.
On the same counts, the results for GGUUAGCAAUAUUACGCUCU are -2.24 ± 0.18 and -0.596 ± 0.17.
With GGUUAGCAAUAUUACGCUUA, the “self-splicing fitness (ln)” value (30 °C) was -1.58 ± 0.13 and the “self-splicing fitness (ln)” value (37 °C) is -0.641 ± 0.12.
For the sequence GGUUAGCAAUAUUACGGACU, the “self-splicing fitness (ln)” value (37 °C) was -1.31 ± 0.23.
For the sequence GGUUAGCAAUAUUACGGAGC, the “self-splicing fitness (ln)” value (30 °C) was -2.27 ± 0.24 and the “self-splicing fitness (ln)” value (37 °C) was -1.43 ± 0.29.
The matching figures for GGUUAGCAAUAUUACGGAGG: -3.02 ± 0.2 and -2.78 ± 0.18.
As to GGUUAGCAAUAUUACGGCAA, the “self-splicing fitness (ln)” value was 0.963 ± 0.39 (30 °C) and -0.363 ± 0.27 (37 °C).
In the case of GGUUAGCAAUAUUACGGCAG, the “self-splicing fitness (ln)” value (30 °C) was -1.83 ± 0.19 and the “self-splicing fitness (ln)” value (37 °C) is -1.43 ± 0.21.
On the same counts, the results for GGUUAGCAAUAUUACGGUAU are -1.55 ± 0.11 and -0.531 ± 0.11.
On the same counts, the results for GGUUAGCAAUAUUACGGUGU are -2.18 ± 0.11 and -0.973 ± 0.15.
On the same counts, the results for GGUUAGCAAUAUUACGUAUA are -1.45 ± 0.14 and -1.24 ± 0.19.
With GGUUAGCAAUAUUACGUCAG, the “self-splicing fitness (ln)” value (30 °C) was -3.16 ± 0.47.
Consider GGUUAGCAAUAUUACGUCUG, for which the “self-splicing fitness (ln)” value runs as follows: (30 °C) -2.1 ± 0.14; (37 °C) -0.405 ± 0.11.
